Laboratory results from PMC12282080 (2025).
Positions count from the first letter of the chain named.

B1: SD4-X monoclonal antibody (human IgG1) (antibody, V domains shown)
VH: QVQLVESGGGVVQPGRSLRLSCAASGFTFSSYGMHWVRQAPGKGLEWVAVISYDGSNKYYADSVKGRFTISRDNSKNTLYLQMNSLRAEDTAVYYCAKDRDYYGSGFFDYWGQGTLVTVSS
VL: DIQMTQSPSSLSASVGDRVTITCQASQDISNHLNWYQEKPGKVPKLLIYEASNVETGVPSRFSGSGSGTDFTFTISSLQPEDIATYYCQQYDNLPYTFGQGTKLEIK
B2: SD4 monoclonal antibody (human IgG1) (antibody, V domains shown)
VH: B1 VH with T28P, S31G, N57E, Y59N, A88V, F108Y
VL: DIQMTQSPSSLSASVGDRVTITCQASQHISNHLNWYQQKPGTAPTLLIYEASNLETGVPSRFSGSGSGTDFSFTISSLRPEDFATYYCQQYDNFPLTFGPGTTMDIK
B3: SD4-S monoclonal antibody (human IgG1) (antibody, V domains shown)
VH: B1 VH with V12L, S31G, N57E, Y59N, A61G, M83I, A88T, T91R, Y103F
VL: DIQMTQSPSSLSASVGDRVTITCQASQDITKYLNWYQQKPGKAPKLLIFEASNLETGVPSRFSGSGSGTDFTFTISSLQPEDFATYYCQQYGDFPLTFGGGTKVEIK
B4: SD12 monoclonal antibody (human IgG1) (antibody, V domains shown)
VH: EVQLLESGGGLVQPGGSLRLSCAASGFIFSSYAMSWVRQAPGKGLEWVSAISGSGGSTYYADSVKGRFTISRDNSKNTLYLQMNSLRDEDTAVYYCAKDRSYVSSGFFDDWGQGTLVTVSS
VL: B1 VL with H32Y, E38Q, K39R, V43A, Y49F, V54L, D92E, P95L
B5: SD22 monoclonal antibody (human IgG1) (antibody, V domains shown)
VH: QVQLVESGGGVVQPGRSLRLSCAASGFTFSGFGMHWVRQAPGKGLEWVALISYDGSDTYYSDSVKGRFTISRDNSKNTLYLQLKSLRPDDTAVYYCVGDRDYFGSGFFDHWGQGTLVTVSS
VL: DIQMTQSPSSLSASIGDRVTITCRASRHITNHLNWYQHKPGRAPKLLIYEASNLQAGVPSRFSGSGSGTDFTFTISSLQPEDFATYYCQQYDNLPPAFGGGTKVDIK

Columns and labels:
[1] = molecular target: T1, SFTSV Gn glycoprotein (G19-K452, C3 genotype) (SFTSV (severe fever with …)); test: BLI
[2] = molecular target: T1, SFTSV Gn glycoprotein (G19-K452, C3 …); test: BLI; remark: listed apart in the source

| Binder | Kd [1] [nM] | koff [2] [s⁻¹] |
| --- | --- | --- |
| B1 | 1.11 | 0.000108 |
| B2 | – | 1.18e-05 |
| B3 | 0.196 | 2.9e-05 |
| B4 | 2.37 | 0.000179 |
| B5 | 0.205 | 4.01e-05 |
